Biological target: human CD19 on KILR Raji cells (UniProt P15391)
Test: cell-based or functional assay

Sequence of human CD19 on KILR Raji cells (P15391 20-556 limits assumed): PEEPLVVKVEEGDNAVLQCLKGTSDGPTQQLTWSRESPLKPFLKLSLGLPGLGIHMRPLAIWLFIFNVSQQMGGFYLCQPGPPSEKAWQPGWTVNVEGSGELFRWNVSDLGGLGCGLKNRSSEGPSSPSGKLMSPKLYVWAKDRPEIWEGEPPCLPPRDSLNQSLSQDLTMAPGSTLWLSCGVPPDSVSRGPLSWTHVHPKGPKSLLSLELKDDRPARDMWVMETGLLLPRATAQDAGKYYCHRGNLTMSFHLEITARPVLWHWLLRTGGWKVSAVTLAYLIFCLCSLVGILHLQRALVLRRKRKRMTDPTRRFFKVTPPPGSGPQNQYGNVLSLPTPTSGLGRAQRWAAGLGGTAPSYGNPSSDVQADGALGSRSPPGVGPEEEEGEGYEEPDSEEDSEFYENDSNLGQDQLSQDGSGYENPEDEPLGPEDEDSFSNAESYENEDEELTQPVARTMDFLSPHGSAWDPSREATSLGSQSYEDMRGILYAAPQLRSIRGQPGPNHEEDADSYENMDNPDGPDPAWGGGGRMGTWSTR

How did the EC50 (pg/mL) of T cell-redirected killing of KILR Raji cells, +HSA turn out when blinatumomab (bispecific antibody) was run?
The EC50 (pg/mL) of T cell-redirected killing of KILR Raji cells, +HSA was 10800 pg/mL.

And the EC50 (pg/mL) of T cell-redirected killing of KILR Raji cells, -HSA?
The EC50 (pg/mL) of T cell-redirected killing of KILR Raji cells, -HSA was 2850 pg/mL.

From patent US20230037815A1
